Results: US6713283B2, “Tyrosylprotein sulfotransferases” (The Board of Regents of the University of Oklahoma, priority 1998, dated 2004)

What was measured:
TPST = assay: Inhibition of [35S]sulfate transfer in the TPST assay by free peptide; type: biochemical; conditions: free peptide versus immobilized peptide
Procedure: (§1) Assay of Sulfotransferase Activity. TPST activity was determined by measuring the transfer of [^35S]sulfate from [^35S]PAPS (Dupont/NEN) to an immobilized peptide. The peptide (QATEYEYLDYDFLPEC (SEQ ID NO:22)) represents the NH2-terminal 15 residues of the mature PSGL-1 polypeptide to which a carboxy terminal cysteine residue was added. […] The peptide was linked via the cysteine residue to iodoacetamide-activated resin (UltraLink™ Iodoacetyl, Pierce) at a density of 1.5-3.0 μmol/ml resin. The enzyme assay was performed by combining 10 μl of peptide-derivitized beads with 2-20 μl of sample in 40 mM PIPES, pH 6.8, 0.3 M NaCl, 20 mM MnCl2, 50 mM NaF, 1% Triton X-100, 1 mM 5′AMP in a final volume of […]. The assay was initiated by addition of 0.5 μCi of [^35S]PAPS (about 1.7 μM). After 30 min at 37° C., the reaction beads were washed extensively with 6 M guanidine at 65° C. and the radioactivity incorporated into the beads determined by liquid scintillation counting. The reaction rate was optimal at pH 6.8-7.0, 0.3 M NaCl, and 2 μM PAPS and was linear with respect to time and sample input. […] One unit of activity was defined as 1 pmol of product formed per minute.

[1] = test system: PSGL-1 peptide (QATEYEYLDYDFLPEC); assay: TPST activity assay: transfer of [35S]sulfate from [35S]PAPS to immobilized PSGL-1 peptide; type: biochemical, Homo sapiens; conditions: for Induction-Fold: mean specific activity of TPST transfected vs. mock transfected extracts; for TPST activity in cell-free conditioned media / culture supernatants: conditioned media of transfected CHO-K1 and 293-T cells (full-length enzyme); for Specific Activity / specific activity of 293-T cell extracts: mean ± SD; for Specific Activity: 1 unit = 1 pmol product/min; for specific activity of 293-T cell extracts: 293-T cells transfected with full-length HPC4 fusion cDNA; for increase in specific activity of 293-T cell extracts compared to mock transfected: PSGL-1 peptide substrate
Procedure: as §1
Chinese hamster ovary cells (CHO-K1) were grown in high-glucose Alpha modified Eagle's media containing 10% FCS, 2 mM glutamine at 37° C. and 5% CO2. The human embryonic kidney cell line 293-T was grown in low-glucose Dulbecco's modified Eagle's media containing 10% FCS, 2 mM glutamine at 37° C. and 5% CO2. Cells were transfected with empty vector or vector containing cDNAs encoding human TPST-1-HPC4 fusion protein or mouse TPST-1 using Lipofectamine (Gibco/BRL) according to the instructions of the supplier. The media was changed at 24 h and after an additional 24 h the conditioned media was collected. The cell monolayers were washed with Ca^2+/Mg^2+-free Hank's balanced salt solution and the cells released from the plates. The cells were pelleted by centrifugation and extracted with 1% Triton X-100, 0.1 M NaCl, 20 mM TAPS (pH 9.0), 10 μg/ml leupeptin/antipain, 5 mM benzamidine. Extracts and conditioned media were clarified by centrifugation (15 min, 10,000 g) and stored at −80° C.
Expression and characterization of Recombinant TPST-2. Full-length human and mouse TPST-2 were expressed in 293-T cells as HPC4 fusion proteins as described in Experimental Procedures. Cells transfected with empty plasmid or plasmid encoding human and mouse TPST fusion proteins were extracted and assayed for TPST activity and protein content. Extracts were assayed as discussed above using a PSGL-1 peptide substrate (QATEYEYLDYDFLPEC (SEQ ID NO:22)). The specific activity of mock transfected 293-T cell extracts was 0.06±0.01 u/mg (mean±SD, n=6).

[2] = extracts of transfected 293-T cells

Molecule: QATEYEYLDYDFLPEC [free peptide]
- IC50 for inhibition of transfer of [35S]sulfate (TPST): equimolar to the concentration of immobilized peptide in the assay

B1: rat liver TPST: TPST purified from rat liver microsomes, polypeptide of about 50 kDa (protein)
chain: MVGKLKQNLLLACLVISSVTVFYLGQHAMECHHRIEERSQPARLENPKATVRTGLDIKANKTFTYHKNMPLIFIGGVPRSGTTLMRAMLDAHPDIRCGEETRVIPRILALKQMWSRSSKEKIRLDEAGVTDEVLDSAMQAFLLEVIVKHGEPAPYLCNKDPFALKSLTYLARLFPNAKFLLMVRDGRASVHSMISRKVTIAGFDLNSYRDCLTKWNRAIETMYNQCMEVGYKKCMLVHYEQLVLHPERWMRTLLKFLHIPWNHSVLHHEEMIGKAGGVSLSKVERSTDQVIKPVNVGALSKWVGKIPPDVLQDMAVIAPMLAKLGYDPYANPPNYGKPDPKILENTRRVHKGEFQLPDFLKEKPQTEQVE
- specific activity of purified enzyme ([1]; rat liver microsomal enzyme after second PSGL-1 peptide column): about 2,950 units/mg

B2: hTPST-1-HPC4: Human tyrosylprotein sulfotransferase-1 (SEQ ID NO:1) expressed as fusion protein with NH2-terminal HPC4 epitope (protein)
chain: MVGKLKQNLLLACLVISSVTVFYLGQHAMECHHRIEERSQPVKLESTRTTVRTGLDLKANKTFAYHKDMPLIFIGGVPRSGTTLMRAMLDAHPDIRCGEETRVIPRILALKQMWSRSSKEKIRLDEAGVTDEVLDSAMQAFLLEIIVKHGEPAPYLCNKDPFALKSLTYLSRLFPNAKFLLMVRDGRASVHSMISRKVTIAGFDLNSYRDCLTKWNRAIETMYNQCMEVGYKKCMLVHYEQLVLHPERWMRTLLKFLQIPWNHSVLHHEEMIGKAGGVSLSKVERSTDQVIKPVNVGALSKWVGKIPPDVLQDMAVIAPMLAKLGYDPYANPPNYGKPDPKIIENTRRVYKGEFQLPDFLKEKPQTEQVE
modifications: N-terminal HPC4 epitope tag
- specific activity of TPST-1 extracts relative to TPST-2 extracts ([1]; 293-T cell extracts, PSGL-1 peptide as substrate): comparable
- Induction-Fold ([1]; 293-T cells): 80 Fold
- Induction-Fold ([1]; CHO-K1 cells): 9 Fold
- TPST activity in cell-free conditioned media / culture supernatants [1]: not detectable
- Specific Activity [1, 2]: 8.84 ± 1.53 (5) units/mg
- Specific Activity ([1]; extracts of transfected CHO-K1 cells): 2.31 ± 0.89 (3) units/mg
- specific activity of purified fusion protein ([1]; purified from 293-T cell extracts by HPC4 affinity chromatography): about 6,300 u/mg

B3: mTPST-1: Mouse tyrosylprotein sulfotransferase-1 (SEQ ID NO:3), expressed from unmodified pcDNA3.1(+) vector (protein)
chain: MVGKLKQNLLLACLVISSVTVFYLGQHAMECHHRIEERSQPARLENPKATVRAGLDIKANKTFTYHKDMPLIFIGGVPRSGTTLMRAMLDAHPDIRCGEETRVIPRILALKQMWSRSSKEKIRLDEAGVTDEVLDSAMQAFLLEVIVKHGEPAPYLCNKDPFALKSLTYLARLFPNAKFLLMVRDGRASVHSMISRKVTIAGFDLNSYRDCLTKWNRAIETMYNQCMEVGYKKCMLVHYEQLVLHPERWMRTLLKFLHIPWNHSVLHHEEMIGKAGGVSLSKVERSTDQVIKPVNVGALSKWVGKIPPDVLQDMAVIAPMLAKLGYDPYANPPNYGKPDPKILENTRRVYKGEFQLPDFLKEKPQTEQVE
- Induction-Fold ([1]; 293-T cells): 74 Fold
- TPST activity in cell-free conditioned media / culture supernatants [1]: not detectable
- Specific Activity [1, 2]: 8.10 ± 1.37 (4) units/mg

B4: human TPST-2: Full-length human tyrosylprotein sulfotransferase-2 (SEQ ID NO:5) expressed as HPC4 fusion protein (protein)
chain: MRLSVRRVLLAAGCALVLVLAVQLGQQVLECRAVLAGLRSPRGAMRPEQEELVMVGTNHVEYRYGKAMPLIFVGGVPRSGTTLMRAMLDAHPEVRCGEETRIIPRVLAMRQAWSKSGREKLRLDEAGVTDEVLDAAMQAFILEVIAKHGEPARVLCNKDPFTLKSSVYLSRLFPNSKFLLMVRDGRASVHSMITRKVTIAGFDLSSYRDCLTKWNKAIEVMYAQCMEVGKEKCLPVYYEQLVLHPRRSLKLILDFLGIAWSDAVLHHEDLIGKPGGVSLSKIERSTDQVIKPVNLEALSKWTGHIPGDVVRDMAQIAPMLAQLGYDPYANPPNYGNPDPFVINNTQRVLKGDYKTPANLKGYFQVNQNSTSSHLGSS
modifications: HPC4 epitope tag
- specific activity of 293-T cell extracts [1]: 7.07±1.28 u/mg
- increase in specific activity of 293-T cell extracts compared to mock transfected ([1]; 293-T cells): 112 fold

B5: mouse TPST-2: Full-length mouse tyrosylprotein sulfotransferase-2 (SEQ ID NO:7) expressed as HPC4 fusion protein (protein)
chain: MRLSVRKVLLAAGCALALVLAVQLGQQVLECRAVLGGTRNPRRMRPEQEELVMLGADHVEYRYGKAMPLIFVGGVPRSGTTLMRAMLDAHPEVRCGEETRIIPRVLAMRQAWTKSGREKLRLDEAGVTDEVLDAAMQAFILEVIAKHGEPARVLCNKDPFTLKSSVYLARLFPNSKFLLMVRDGRASVHSMITRKVTIAGFDLSSYRDCLTKWNKAIEVMYAQCMEVGRDKCLPVYYEQLVLHPRRSLKRILDFLGIAWSDTVLHHEDLIGKPGGVSLSKIERSTDQVIKPVNLEALSKWTGHIPRDVVRDMAQIAPMLARLGYDPYANPPNYGNPDPIVINNTHRVLKGDYKTPANLKGYFQVNQNSTSPHLGSS
modifications: HPC4 fusion tag
- specific activity of 293-T cell extracts [1]: 2.91±0.86 u/mg
- increase in specific activity of 293-T cell extracts compared to mock transfected ([1]; 293-T cells): 46 fold

B6: C. elegans TPST-A: C. elegans tyrosylprotein sulfotransferase of 380 amino acids (SEQ ID NO:9), expressed full-length in 293-T cells (protein)
chain: MRKNRELLLVLFLVVFILFYFITARTADDPYYSNHREKFNGAAADDGDESLPFHQLTSVRSDDGYNRTSPFIFIGGVPRSGTTLMRAMLDAHPEVRCGEETRVIPRILNLRSQWKKSEKEWNRLQQAGVTGEVINNAISSFIMEIMVGHGDRAPRLCNKDPFTMKSAVYLKELFPNAKYLLMIRDGRATVNSIISRKVTITGFDLNDFRQCMTKWNAAIQIMVDQCESVGEKNCLKVYYEQLVLHPEAQMRRITEFLDIPWDDKVLHHEQLIGKDISLSNVERSSDQVVKPVNLDALIKWVGTIPEDVVADMDSVAPMLRRLGYDPNANPPNYGKPDELVAKKTEDVHKNGAEWYKKAVQVVNDPGRVDKPIVDNEVSKL
- increase in specific activity of 293-T cell extracts compared to mock transfected ([1]; 293-T cells): 40 fold
